# Values quoted from earlier work in publication PMC3273586 (International Journal of Pharmaceutics, 2011).
# Conditions: solution stored for 20 h at room temperature; ref Dijkhuizen-Radersma et al., 2002
substance,measurement,value
calcitonin,aggregation of solution on storage,early onset of aggregation
